Assay results published in patent US20120070451.

System: Cavβ2 (Ca2+ beta2 channel accessory subunit), endogenous, mouse heart

recombinant active Akt
in vitro kinase assay: Cavβ2-immunoprecipitates from cardiac homogenates incubated with recombinant active Akt and [γ-32]ATP: A band corresponding to phosphorylated Cavβ2 was detected only in the presence of the kinase
